One experiment deals with T1, 4H2473-bA.
T1 chain: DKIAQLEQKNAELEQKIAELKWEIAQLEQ
The experiment is described as follows: two-hybrid library CCNG1.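 Also: natural log of median RNA to DNA barcode read ratio; higher means stronger binding.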

For another experiment, the target named is T2, 4H477-bA.
T2 chain: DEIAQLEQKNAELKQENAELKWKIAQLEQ
The experiment is described as follows: two-hybrid library CCNG1.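 Also: natural log of median RNA to DNA barcode read ratio; higher means stronger binding.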

In a further experiment the target is T3, 4H741-bA.
T3 chain: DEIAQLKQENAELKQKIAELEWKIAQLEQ
Briefly: two-hybrid library CCNG1.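 Also: natural log of median RNA to DNA barcode read ratio; higher means stronger binding.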

A further experiment has as its target T4, 4H2438-bA.
T4 chain: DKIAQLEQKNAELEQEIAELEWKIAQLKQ
The experiment is described as follows: two-hybrid library CCNG1.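 Also: natural log of median RNA to DNA barcode read ratio; higher means stronger binding.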

For another experiment, the target named is T5, 4H2915-bA.
T5 chain: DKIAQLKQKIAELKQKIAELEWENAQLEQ
The experiment is described as follows: two-hybrid library CCNG1.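 Also: natural log of median RNA to DNA barcode read ratio; higher means stronger binding.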

A further experiment deals with T6, 4H3277-bA.
T6 chain: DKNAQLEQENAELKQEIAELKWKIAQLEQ
The experiment is described as follows: two-hybrid library CCNG1.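 Also: natural log of median RNA to DNA barcode read ratio; higher means stronger binding.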

The target in a further experiment is T7, 4H40-bA.
T7 chain: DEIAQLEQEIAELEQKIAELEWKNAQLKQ
Briefly: two-hybrid library CCNG1.

For a further experiment, the target named is T8, 4H319-bA.
T8 chain: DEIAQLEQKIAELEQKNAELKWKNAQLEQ
The experiment is described as follows: two-hybrid library CCNG1.

The target in another experiment is T9, 4H2503-bA.
T9 chain: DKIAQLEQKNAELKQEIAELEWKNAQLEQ
Briefly: two-hybrid library CCNG1.

In the next experiment the target is T10, 4H2839-bA.
T10 chain: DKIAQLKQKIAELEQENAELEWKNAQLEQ
The experiment is described as follows: two-hybrid library CCNG1.

For the next experiment, the target named is T11, 4H2692-bA.
T11 chain: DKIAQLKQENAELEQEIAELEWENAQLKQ
The experiment is described as follows: two-hybrid library CCNG1.

For the next experiment, the target named is T12, 4H3057-bA.
T12 chain: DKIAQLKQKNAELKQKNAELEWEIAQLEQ
Briefly: two-hybrid library CCNG1.

The next experiment addresses T13, 4H492-bA.
T13 chain: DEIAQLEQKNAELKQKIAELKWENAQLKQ
Briefly: two-hybrid library CCNG1.

The target of the next experiment is T14, 4H2223-bA.
T14 chain: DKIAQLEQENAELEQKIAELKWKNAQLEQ
Briefly: two-hybrid library CCNG1.

Another experiment addresses T15, 4H2588-bA.
T15 chain: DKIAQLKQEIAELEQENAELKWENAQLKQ
Briefly: two-hybrid library CCNG1.

In the next experiment the target is T16, 4H2717-bA.
T16 chain: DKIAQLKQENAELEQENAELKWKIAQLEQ
The experiment is described as follows: two-hybrid library CCNG1.

The next experiment addresses T17, 4H348-bA.
T17 chain: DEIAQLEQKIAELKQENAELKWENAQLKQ
Briefly: two-hybrid library CCNG1.

Another experiment has as its target T18, 4H3651-AA.
T18 chain: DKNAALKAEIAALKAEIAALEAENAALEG
The experiment is described as follows: two-hybrid library CCmax. The following applies: mean of both orientations.

Another experiment addresses T19, 4H895-AA.
T19 chain: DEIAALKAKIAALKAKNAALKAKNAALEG
Briefly: two-hybrid library CCmax. Conditions: mean of both orientations.

Another experiment addresses T20, 4H2721-AA.
T20 chain: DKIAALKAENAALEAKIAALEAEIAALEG
The experiment is described as follows: two-hybrid library CCmax. The following applies: mean of both orientations.

Another experiment deals with T21, 4H3705-AA.
T21 chain: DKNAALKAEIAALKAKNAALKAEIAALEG
The experiment is described as follows: two-hybrid library CCmax. Conditions: mean of both orientations.

The target of another experiment is T22, 4H656-AA.
T22 chain: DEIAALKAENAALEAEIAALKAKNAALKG
The experiment is described as follows: two-hybrid library CCmax.

Another experiment deals with T23, 4H2898-AA.
T23 chain: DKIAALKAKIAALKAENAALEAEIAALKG
The experiment is described as follows: two-hybrid library CCmax. The following applies: mean of both orientations.

Another experiment concerns the target T24, 4H_APH.
T24 chain: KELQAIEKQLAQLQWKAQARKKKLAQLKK
Briefly: two-hybrid library CCmax. Conditions: mean of both orientations.

For another experiment, the target named is T25, 4H3365-AA.
T25 chain: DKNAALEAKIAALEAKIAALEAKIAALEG
Briefly: two-hybrid library CCmax. The following applies: mean of both orientations.

Another experiment concerns the target T26, 4H_BCR.
T26 chain: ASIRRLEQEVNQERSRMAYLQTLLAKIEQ
Briefly: two-hybrid library CCmax. Conditions: mean of both orientations.

For a further experiment, the target named is T27, 4H486-AA.
T27 chain: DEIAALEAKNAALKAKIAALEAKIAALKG
Briefly: two-hybrid library CCmax. Conditions: mean of both orientations.

The target of another experiment is T28, 4H1802-AA.
T28 chain: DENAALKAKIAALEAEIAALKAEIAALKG
Briefly: two-hybrid library CCmax.

The next experiment addresses T29, 4H3782-AA.
T29 chain: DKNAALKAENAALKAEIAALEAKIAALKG
The experiment is described as follows: two-hybrid library CCmax. The following applies: mean of both orientations.

The next experiment deals with T30, 4H58-AA.
T30 chain: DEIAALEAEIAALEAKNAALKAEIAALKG
Briefly: two-hybrid library CCmax. Conditions: mean of both orientations.

For another experiment, the target named is T31, 4H535-AA.
T31 chain: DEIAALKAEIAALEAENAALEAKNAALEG
Briefly: two-hybrid library CCmax. Conditions: mean of both orientations.

Another experiment addresses GCN2_T. The experiment is described as follows: two-hybrid library CCmax.
A further experiment deals with T32, 4H2750-AA.
T32 chain: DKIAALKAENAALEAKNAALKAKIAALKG
Briefly: two-hybrid library CCmax. The following applies: mean of both orientations.

In a further experiment the target is T33, 4H355-AA.
T33 chain: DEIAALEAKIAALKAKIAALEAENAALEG
Briefly: two-hybrid library CCmax. The following applies: mean of both orientations.

A further experiment has as its target T34, 4H2600-AA.
T34 chain: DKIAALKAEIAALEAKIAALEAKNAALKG
Briefly: two-hybrid library CCmax. Conditions: mean of both orientations.

A further experiment deals with 4H_GCN4. Briefly: two-hybrid library CCmax.
4H_GCN4, sequence (chain, as listed by the source): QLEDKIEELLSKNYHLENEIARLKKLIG
Another experiment addresses T35, 4H3020-AA.
T35 chain: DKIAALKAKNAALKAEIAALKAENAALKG
Briefly: two-hybrid library CCmax. Conditions: mean of both orientations.

In the next experiment the target is T36, 4H465-AA.
T36 chain: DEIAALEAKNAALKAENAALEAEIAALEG
Briefly: two-hybrid library CCmax. The following applies: mean of both orientations.

The values that follow come from article PMC10397247.

DKIAQLEQENAELEQKIAELKWKNAQLEQ [4H2223-bA]: the interaction score is -0.247 in the experiment with 4H2473-bA; -1.47 with 4H477-bA; 0.169 with 4H741-bA; 0.457 with 4H2438-bA; 0.32 with 4H2915-bA; -0.571 in the experiment with 4H3277-bA. Moreover, the interaction score was -1.46 with 4H40-bA; -0.61 with 4H319-bA; 1.47 with 4H2503-bA; -0.368 with 4H2839-bA; -0.196 with 4H2692-bA; 0.223 in the experiment with 4H3057-bA. The interaction score was 1.49 with 4H492-bA; 0.291 with 4H2223-bA; -0.336 with 4H2588-bA; -0.279 in the experiment with 4H2717-bA; -1.22 with 4H348-bA.
Take DENAALKAKIAALEAEIAALKAEIAALKG [4H1802-AA]: the interaction score with 4H3651-AA is -1.48; with 4H895-AA it was -1.85; in the experiment with 4H2721-AA, -1.29; with 4H3705-AA, -1.42; with 4H656-AA, -2.89; with 4H2898-AA, -1.81. Moreover, the interaction score with 4H_APH is -1.86; in the experiment with 4H3365-AA, -1.3; in the experiment with 4H_BCR it was -1.68; in the experiment with 4H486-AA, -1.28; in the experiment with 4H1802-AA, 1.63; in the experiment with 4H3782-AA, -1.38. In addition, the interaction score is -1.15 in the experiment with 4H58-AA; -1.73 with 4H535-AA; -1.36 with GCN2_T; -1.63 with 4H2750-AA; -0.981 with 4H355-AA; -0.95 with 4H2600-AA. In addition, the interaction score with 4H_GCN4 is -1.26; in the experiment with 4H3020-AA, -1.81; with 4H465-AA it was -1.48.
